B1: GpH7-A5/GpH7-B3 variant K334_13S/GpL16-k0 (antibody, human IgG1, kappa)
heavy 1: not shown
heavy 2: not shown
light: DIVMTQSPLSLPVTPGEPASISCQASESLVHSNRNTYLHWYLQKPGQSPQLLIYKVSNRFSGVPDRFSGSGSGTDFTLKISRVEAEDVGVYYCSQNTHVPPTFGQGTKVEIERTVAAPSVFIFPPSDEQLKSGTASVVCLLNNFYPREAKVQWKVDNALQSGNSQESVTEQDSKDSTYSLSSTLTLSKADYEKHKVYACEVTHQGLSSPVTKSFNRGEC
notes: heterodimerized antibody, mutation in one H chain only; also called K334_13S He Ab
B2: GpH7-A5/GpH7-B3 variant K326_19Q/GpL16-k0 (antibody, human IgG1, kappa)
heavy 1: not shown
heavy 2: not shown
light: B1 light
notes: heterodimerized antibody, mutation in one H chain only; also called K326_19Q He Ab
B3: GpH7-A5/GpH7-B3 variant S239_10E/GpL16-k0 (antibody, human IgG1, kappa)
heavy 1: not shown
heavy 2: not shown
light: B1 light
notes: heterodimerized antibody, mutation in one H chain only; also called S239_10E He Ab
B4: GpH7-A5/GpH7-B3 variant K326_03V/GpL16-k0 (antibody, human IgG1, kappa)
heavy 1: not shown
heavy 2: not shown
light: B1 light
notes: heterodimerized antibody, mutation in one H chain only; also called K326_03V He Ab
B5: GpH7-A5/GpH7-B3 variant Y296_08L/GpL16-k0 (antibody, human IgG1, kappa)
heavy 1: not shown
heavy 2: not shown
light: B1 light
notes: heterodimerized antibody, mutation in one H chain only; also called Y296_08L He Ab
B6: GpH7-A5/GpH7-B3 variant K326_07I/GpL16-k0 (antibody, human IgG1, kappa)
heavy 1: not shown
heavy 2: not shown
light: B1 light
notes: heterodimerized antibody, mutation in one H chain only; also called K326_07I He Ab
B7: GpH7-A5/GpH7-B3 variant K326_09D/GpL16-k0 (antibody, human IgG1, kappa)
heavy 1: not shown
heavy 2: not shown
light: B1 light
notes: heterodimerized antibody, mutation in one H chain only; also called K326_09D He Ab
B8: GpH7-A5/GpH7-B3 variant S324_10E/GpL16-k0 (antibody, human IgG1, kappa)
heavy 1: not shown
heavy 2: not shown
light: B1 light
notes: heterodimerized antibody, mutation in one H chain only; also called S324_10E He Ab
B9: GpH7-A5/GpH7-B3 variant S298_09D/GpL16-k0 (antibody, human IgG1, kappa)
heavy 1: not shown
heavy 2: not shown
light: B1 light
notes: heterodimerized antibody, mutation in one H chain only; also called S298_09D He Ab
B10: GpH7-A5/GpH7-B3 variant S324_09D/GpL16-k0 (antibody, human IgG1, kappa)
heavy 1: not shown
heavy 2: not shown
light: B1 light
notes: heterodimerized antibody, mutation in one H chain only; also called S324_09D He Ab
B11: GpH7-A5/GpH7-B3 variant Q295_12R/GpL16-k0 (antibody, human IgG1, kappa)
heavy 1: not shown
heavy 2: not shown
light: B1 light
notes: heterodimerized antibody, mutation in one H chain only; also called Q295_12R He Ab
B12: GpH7-A5/GpH7-B3 variant I336_15Y/GpL16-k0 (antibody, human IgG1, kappa)
heavy 1: not shown
heavy 2: not shown
light: B1 light
notes: heterodimerized antibody, mutation in one H chain only; also called I336_15Y He Ab
B13: GpH7-A5/GpH7-B3 variant K334_08L/GpL16-k0 (antibody, human IgG1, kappa)
heavy 1: not shown
heavy 2: not shown
light: B1 light
notes: heterodimerized antibody, mutation in one H chain only; also called K334_08L He Ab
B14: GpH7-A5/GpH7-B3 variant S337_11K/GpL16-k0 (antibody, human IgG1, kappa)
heavy 1: not shown
heavy 2: not shown
light: B1 light
notes: heterodimerized antibody, mutation in one H chain only; also called S337_11K He Ab
B15: GpH7-A5/GpH7-B3 variant K334_02A/GpL16-k0 (antibody, human IgG1, kappa)
heavy 1: not shown
heavy 2: not shown
light: B1 light
notes: heterodimerized antibody, mutation in one H chain only; also called K334_02A He Ab
B16: GpH7-A5/GpH7-B3 variant Q295_10E/GpL16-k0 (antibody, human IgG1, kappa)
heavy 1: not shown
heavy 2: not shown
light: B1 light
notes: heterodimerized antibody, mutation in one H chain only; also called Q295_10E He Ab
B17: GpH7-A5/GpH7-B3 variant K334_18N/GpL16-k0 (antibody, human IgG1, kappa)
heavy 1: not shown
heavy 2: not shown
light: B1 light
notes: heterodimerized antibody, mutation in one H chain only; also called K334_18N He Ab
B18: GpH7-A5/GpH7-B3 variant K334_04F/GpL16-k0 (antibody, human IgG1, kappa)
heavy 1: not shown
heavy 2: not shown
light: B1 light
notes: heterodimerized antibody, mutation in one H chain only; also called K334_04F He Ab
B19: GpH7-A5/GpH7-B3 variant S267_14T/GpL16-k0 (antibody, human IgG1, kappa)
heavy 1: not shown
heavy 2: not shown
light: B1 light
notes: heterodimerized antibody, mutation in one H chain only; also called S267_14T He Ab
B20: GpH7-A5/GpH7-B3 variant K334_14T/GpL16-k0 (antibody, human IgG1, kappa)
heavy 1: not shown
heavy 2: not shown
light: B1 light
notes: heterodimerized antibody, mutation in one H chain only; also called K334_14T He Ab
B21: GpH7-A5/GpH7-B3 variant S267_19Q/GpL16-k0 (antibody, human IgG1, kappa)
heavy 1: not shown
heavy 2: not shown
light: B1 light
notes: heterodimerized antibody, mutation in one H chain only; also called S267_19Q He Ab
B22: GpH7-A5/GpH7-B3 variant S337_14T/GpL16-k0 (antibody, human IgG1, kappa)
heavy 1: not shown
heavy 2: not shown
light: B1 light
notes: heterodimerized antibody, mutation in one H chain only; also called S337_14T He Ab
B23: GpH7-A5/GpH7-B3 variant K326_08L/GpL16-k0 (antibody, human IgG1, kappa)
heavy 1: not shown
heavy 2: not shown
light: B1 light
notes: heterodimerized antibody, mutation in one H chain only; also called K326_08L He Ab
B24: GpH7-A5/GpH7-B3 variant K326_20W/GpL16-k0 (antibody, human IgG1, kappa)
heavy 1: not shown
heavy 2: not shown
light: B1 light
notes: heterodimerized antibody, mutation in one H chain only; also called K326_20W He Ab
B25: GpH7-B3 variant Y296_02A/GpL16-k0 (antibody, human IgG1, kappa)
heavy: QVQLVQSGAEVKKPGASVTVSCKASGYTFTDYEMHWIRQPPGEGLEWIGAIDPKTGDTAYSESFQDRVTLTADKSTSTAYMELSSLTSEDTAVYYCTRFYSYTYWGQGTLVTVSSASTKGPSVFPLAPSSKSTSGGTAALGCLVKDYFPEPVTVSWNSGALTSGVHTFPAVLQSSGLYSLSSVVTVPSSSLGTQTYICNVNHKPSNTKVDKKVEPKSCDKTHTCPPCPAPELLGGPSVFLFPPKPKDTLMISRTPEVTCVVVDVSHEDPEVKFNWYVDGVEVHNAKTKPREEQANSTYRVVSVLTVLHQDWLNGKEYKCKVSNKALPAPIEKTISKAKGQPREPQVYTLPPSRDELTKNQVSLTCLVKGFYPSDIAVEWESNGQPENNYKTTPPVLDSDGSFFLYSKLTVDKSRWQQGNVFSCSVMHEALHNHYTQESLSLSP
light: B1 light
notes: homodimerized antibody, mutation in both H chains; also called Y296_02A Ho Ab
B26: GpH7-B3 variant Y300_16H/GpL16-k0 (antibody, human IgG1, kappa)
heavy: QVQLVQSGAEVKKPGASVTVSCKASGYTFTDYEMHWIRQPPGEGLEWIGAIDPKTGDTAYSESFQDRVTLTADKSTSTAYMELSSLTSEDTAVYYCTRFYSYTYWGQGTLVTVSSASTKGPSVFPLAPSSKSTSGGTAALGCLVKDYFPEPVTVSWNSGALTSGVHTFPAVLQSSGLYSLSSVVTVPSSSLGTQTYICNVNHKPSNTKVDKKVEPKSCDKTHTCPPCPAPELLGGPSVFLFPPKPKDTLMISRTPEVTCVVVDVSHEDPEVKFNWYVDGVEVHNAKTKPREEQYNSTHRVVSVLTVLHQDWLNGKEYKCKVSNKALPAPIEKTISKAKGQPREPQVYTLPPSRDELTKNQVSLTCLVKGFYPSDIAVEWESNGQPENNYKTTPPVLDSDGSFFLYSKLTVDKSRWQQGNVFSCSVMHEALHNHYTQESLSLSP
light: B1 light
notes: homodimerized antibody, mutation in both H chains; also called Y300_16H Ho Ab
B27: GpH7-B3 variant Y296_08L/GpL16-k0 (antibody, human IgG1, kappa)
heavy: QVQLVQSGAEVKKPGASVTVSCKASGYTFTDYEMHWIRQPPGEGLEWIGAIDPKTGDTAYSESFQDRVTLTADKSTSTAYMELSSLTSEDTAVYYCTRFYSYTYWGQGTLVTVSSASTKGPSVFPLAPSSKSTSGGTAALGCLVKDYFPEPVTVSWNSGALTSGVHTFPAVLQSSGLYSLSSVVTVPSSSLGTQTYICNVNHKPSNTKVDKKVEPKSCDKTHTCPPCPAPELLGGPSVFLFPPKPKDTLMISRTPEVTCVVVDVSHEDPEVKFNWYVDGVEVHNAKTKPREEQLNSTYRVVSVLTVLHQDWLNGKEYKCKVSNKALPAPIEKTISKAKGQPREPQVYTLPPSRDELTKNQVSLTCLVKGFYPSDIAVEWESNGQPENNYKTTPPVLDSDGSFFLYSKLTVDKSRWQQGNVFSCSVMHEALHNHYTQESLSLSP
light: B1 light
notes: homodimerized antibody, mutation in both H chains; also called Y296_08L Ho Ab
B28: GpH7-B3 variant Y296_03V/GpL16-k0 (antibody, human IgG1, kappa)
heavy: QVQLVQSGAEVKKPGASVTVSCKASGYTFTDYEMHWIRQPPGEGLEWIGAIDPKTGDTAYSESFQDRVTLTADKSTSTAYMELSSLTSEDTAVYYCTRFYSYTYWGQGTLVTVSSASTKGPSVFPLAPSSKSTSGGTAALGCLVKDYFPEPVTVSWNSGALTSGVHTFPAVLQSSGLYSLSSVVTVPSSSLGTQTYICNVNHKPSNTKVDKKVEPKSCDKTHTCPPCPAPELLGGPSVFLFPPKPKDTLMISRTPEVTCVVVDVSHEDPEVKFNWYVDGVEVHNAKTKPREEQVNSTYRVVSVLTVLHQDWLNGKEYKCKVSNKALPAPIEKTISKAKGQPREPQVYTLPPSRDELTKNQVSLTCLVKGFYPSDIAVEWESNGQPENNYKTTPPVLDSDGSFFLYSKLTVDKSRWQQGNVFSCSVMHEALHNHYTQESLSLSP
light: B1 light
notes: homodimerized antibody, mutation in both H chains; also called Y296_03V Ho Ab
B29: GpH7-B3 variant Y296_07I/GpL16-k0 (antibody, human IgG1, kappa)
heavy: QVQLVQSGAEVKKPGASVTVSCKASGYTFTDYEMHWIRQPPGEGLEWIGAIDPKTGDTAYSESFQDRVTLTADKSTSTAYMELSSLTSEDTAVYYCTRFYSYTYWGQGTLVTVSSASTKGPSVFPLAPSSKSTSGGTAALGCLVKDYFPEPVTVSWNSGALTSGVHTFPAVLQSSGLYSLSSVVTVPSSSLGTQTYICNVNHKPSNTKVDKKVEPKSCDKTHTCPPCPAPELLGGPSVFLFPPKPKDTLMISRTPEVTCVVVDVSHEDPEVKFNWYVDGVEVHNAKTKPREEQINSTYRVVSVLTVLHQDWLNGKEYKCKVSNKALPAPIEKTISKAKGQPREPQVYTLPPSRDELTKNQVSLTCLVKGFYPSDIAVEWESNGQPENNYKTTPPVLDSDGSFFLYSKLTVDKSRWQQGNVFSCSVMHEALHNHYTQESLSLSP
light: B1 light
notes: homodimerized antibody, mutation in both H chains; also called Y296_07I Ho Ab
B30: GpH7-B3 variant Y300_07I/GpL16-k0 (antibody, human IgG1, kappa)
heavy: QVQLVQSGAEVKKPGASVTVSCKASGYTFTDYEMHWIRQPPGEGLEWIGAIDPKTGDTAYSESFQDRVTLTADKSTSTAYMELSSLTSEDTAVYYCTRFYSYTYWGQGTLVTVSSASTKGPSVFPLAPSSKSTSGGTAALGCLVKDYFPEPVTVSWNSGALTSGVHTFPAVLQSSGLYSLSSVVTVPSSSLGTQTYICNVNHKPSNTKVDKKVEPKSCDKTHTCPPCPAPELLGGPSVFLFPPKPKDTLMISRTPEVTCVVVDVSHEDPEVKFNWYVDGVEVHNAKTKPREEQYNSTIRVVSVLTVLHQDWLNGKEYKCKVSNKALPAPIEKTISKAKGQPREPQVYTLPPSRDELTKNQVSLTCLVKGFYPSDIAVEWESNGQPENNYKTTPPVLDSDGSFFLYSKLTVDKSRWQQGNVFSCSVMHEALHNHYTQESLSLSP
light: B1 light
notes: homodimerized antibody, mutation in both H chains; also called Y300_07I Ho Ab

The binders below were run against T1, FcγRIa extracellular domain with C-terminal His tag (human, UniProt P12314 16-292) (assay: SPR (Biacore), relative FcγRIa binding, GpH7-A5/GpH7-B3/GpL16-k0 (HeCon Ab) = 100).
T1 construct: extracellular domain; soluble analyte in Biacore; also called FcgRI; CD64
T1 sequence (P12314 16-292): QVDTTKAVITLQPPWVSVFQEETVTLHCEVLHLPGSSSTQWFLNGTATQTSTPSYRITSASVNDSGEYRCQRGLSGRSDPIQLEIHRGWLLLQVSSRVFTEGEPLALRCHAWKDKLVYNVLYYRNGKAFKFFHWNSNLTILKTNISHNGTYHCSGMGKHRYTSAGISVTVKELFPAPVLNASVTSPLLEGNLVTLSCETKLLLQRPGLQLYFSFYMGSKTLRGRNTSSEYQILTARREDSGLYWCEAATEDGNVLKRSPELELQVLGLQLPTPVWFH

He/Con_1a	Binder
105 % of control	B1
102 % of control	B2
105 % of control	B3
102 % of control	B4
104 % of control	B5
101 % of control	B6
103 % of control	B7
105 % of control	B8
106 % of control	B9
104 % of control	B10
100 % of control	B11
103 % of control	B12
105 % of control	B13
104 % of control	B14
106 % of control	B15
103 % of control	B16
105 % of control	B17
105 % of control	B18
102 % of control	B19
105 % of control	B20
102 % of control	B21
105 % of control	B22
100 % of control	B23
103 % of control	B24

The binders below were run against T1, FcγRIa extracellular domain with … (assay: SPR (Biacore), relative FcγRIa binding, GpH7-B3/GpL16-k0 (HoCon Ab) = 100).

Ho/Con_1a	Binder
103 % of control	B25
111 % of control	B26
105 % of control	B27
104 % of control	B28
106 % of control	B29
109 % of control	B30
